Biological target: His6-BacA_(F134R), purified (Asticcacaulis biprosthecum)
Experiment: SEC; 500 μl of purified protein from the polymerization assay (Buffer C) on Superdex 200 Increase 10/300 GL, calibrated with standard proteins

stoichiometry N: 2
Substance: His6-BacA_(F134R), purified (natural protein)

— doi:10.1101/2024.12.16.628611
